From patent US20080293626A1, “Pigment epithelium-derived factor as a therapeutic agent for vascular leakage” (The Johns Hopkins University, priority 2003, published 2008)
“Also recorded” adds a separate entry of the source.

B1: PEDF: Recombinant human pigment epithelium-derived factor, 418-amino acid 50-kDa glycoprotein, produced in 293 cells (SEQ ID NO: 1) (protein, listed as Homo sapiens)
chain: MQALVLLLCIGALLGHSSCQNPASPPEEGSPDPDSTGALVEEEDPFFKVPVNKLAAAVSNFGYDLYRVRSSMSPTTNVLLSPLSVATALSALSLGAEQRTESIIHRALYYDLISSPDIHGTYKELLDTVTAPQKNLKSASRIVFEKKLRIKSSFVAPLEKSYGTRPRVLTGNPRLDLQEINNWVQAQMKGKLARSTKEIPDELSLLLLGVAHFKGQWVTKFDSRKTSLEDFYLDEERTVRVPMMSDPKAVLRYGLDSDLSCKIAQLPLTGSMSLIFFLPLKVTQNLTLIEESLTSEFIHDIDRELKTVQAVLTVPKLKLSYEGEVTKSLQEMKLQSLFDSPDFSKITGKPIKLTQVEHRAGFEWNEDGAGTTPSPGLQPAHLTFPLDYHLNQPFIFVLRDTDTGALLFIGKILDPRGP
modifications: glycosylated
B2: HSP47: heat shock protein 47, collagen-specific chaperone protein from the serpin family, control protein (protein, UniProt P50454 19-418, looked up)
Serpin H1: AEVKKPAAAAAPGTAEKLSPKAATLAERSAGLAFSLYQAMAKDQAVENILVSPVVVASSLGLVSLGGKATTASQAKAVLSAEQLRDEEVHAGLGELLRSLSNSTARNVTWKLGSRLYGPSSVSFADDFVRSSKQHYNCEHSKINFRDKRSALQSINEWAAQTTDGKLPEVTKDVERTDGALLVNAMFFKPHWDEKFHHKMVDNRGFMVTRSYTVGVMMMHRTGLYNYYDDEKEKLQIVEMPLAHKLSSLIILMPHHVEPLERLEKLLTKEQLKIWMGKMQKKAVAISLPKGVVEVTHDLQKHLAGLGLTEAIDKNKADLSRMSGKKDLYLASVFHATAFELDTDGNPFDQDIYGREELRSPKLFYADHPFIFLVRDTQSGSLLFIGRLVRPKGDKMRDEL
B3: ACT: α1-antichymotrypsin, a classical serpin used as control protein (protein, UniProt P01011 24-423, looked up)
Alpha-1-antichymotrypsin: HPNSPLDEENLTQENQDRGTHVDLGLASANVDFAFSLYKQLVLKAPDKNVIFSPLSISTALAFLSLGAHNTTLTEILKGLKFNLTETSEAEIHQSFQHLLRTLNQSSDELQLSMGNAMFVKEQLSLLDRFTEDAKRLYGSEAFATDFQDSAAAKKLINDYVKNGTRGKITDLIKDLDSQTMMVLVNYIFFKAKWEMPFDPQDTHQSRFYLSKKKWVMVPMMSLHHLTIPYFRDEELSCTVVELKYTGNASALFILPDQDKMEEVEAMLLPETLKRWRDSLEFREIGELYLPKFSISRDYNLNDILLQLGIEEAFTSKADLSGITGARNLAVSQVVHKAVLDVFEEGTEASAATAVKITLLSALVETRTIVRFNRPFLMIIVPTDTQNIFFMSKVTNPKQA

Assays:
[1] = test system: VEGF-induced retinal vascular permeability; test: Fluorescein angiography after intravitreal co-injection with VEGF164; assay type: in vivo, mouse (C57BL/6J); conditions: mouse eye, co-injected intravitreally with 12.6 ng VEGF164 at 20-fold molar excess; 20 h after injection; qualitative
Description: (§1) Intravitreal injection to assess bioactivity on vascular permeability. C57BL/6J mice, 6-8 weeks of age, were cared for in accordance with the Association for Research in Vision and Opthalmology Statement for the Use of Animals in Ophthalmic and Vision Research. For anesthesia, each received intramuscularly 20 mg/kg ketamine, 20 mg/kg xylazine and 800 mg/kg urethane in 0.3-0.4 ml of phosphate buffered saline (PBS, 1.06 mM KH2PO4, 0.15 M NaCl and 3.00 mM Na2HPO4, pH 7.4). Under 10× magnification, 1 μl of murine VEGF164 (12.6 ng/μl in PBS; R&D Systems, Minneapolis, Minn.) was delivered through a 20° beveled glass pipette, with a tip diameter of 13-20 μm. The contralateral eye received an equal volume of PBS alone or PBS containing 12.6 ng VEGF164, and a 20-fold molar excess of PEDF (232 ng), ACT (278 ng), HSP47 (278 ng), PEDFpep (28.1 ng), ACTpep (29.7 ng), or CHIMERApep (28.2 ng).
Fluorescein angiograghy. Twenty hours after intravitreal injections, each pupil was dilated with one drop of 1% atropine sulfate. After intraperitoneal injection of 0.1 ml of 25% fluorescein, successive retina photographs were taken with a Kowa Genesis camera. The first photograph was taken within 20 seconds of the intraperitoneal fluorescein injection. Time elapsed between the alternating right and left eye retinal photographs averages 10 seconds. Fluorescein leakage manifests as indistinct vascular borders progressing to diffusely hazy fluorescence.

[2] = test system: VEGF-induced retinal vascular permeability; test: Evans blue assay after intravitreal co-injection with VEGF164; assay type: in vivo, mouse (C57BL/6J); conditions: mouse eye, co-injected intravitreally with VEGF164 at 20-fold molar excess; for inhibition of VEGF-induced retinal vascular permeability (Evans blue-albumin): 24 h, VEGF-induced increase = 100%, mean ±SE
Description: as §1
Evans Blue assay. We used a modification of the method described by Qaum et al.^44 Briefly, each mouse received intravitreal injections of proteins or peptides, and intrajugular injection of Evans blue^44. After 2 hours, 200 μl blood was taken and assayed for Evans blue. The retina was extruded and dissected free from any vitreous or adherent retinal pigment epithelium.
To assess the Evans blue-albumin concentration, the optical density of the retinal extract and plasma samples were measured at 620 nm and 740 nm. The retinal vasopermeability was calculated as the quantity of retinal Evans blue normalized to retinal dry weight, plasma Evans blue concentration, and circulation time by using the formula as described^32,44. Since all animals in this report had 1 eye injected with VEGF alone, the retinal permeability in the VEGF injected eyes was normalized to the VEGF injected eye in the set of animals where 1 eye received PBS. The VEGF-induced increase in permeability was taken to be 100%.

[3] = test system: VEGF164-stimulated bovine retinal capillary endothelial cell migration; conditions: read-out: IC50, inhibition of VEGF-stimulated endothelial cell migration; BRCEC, VEGF164-stimulated, 8 hours at 37° C.
Description: BRCEC migration assay. Bovine retinal capillary endothelial cells (BRCEC) were isolated and cultured as described 45. […] Cells, between the fifth and ninth passage, were starved overnight in MEM with D-Val and 2% fetal bovine serum. Polycarbonate filters (10 μm pore-size, PVPF; Osmonics Inc., Minnetonka, Minn.) were coated with 100 μg/ml collagen. Quadruplicates with test samples in MEM D-Val (28 μl), and 10^4 cells in MEM D-Val (50 μl) were placed in the lower and upper wells, respectively, of the microchemotaxis chamber (NeuroProbe, Gaithersburg, Md.). After incubating 8 hours at 37° C., the non-migrated cells on the upper surface of the filter were removed, and the filters were stained with Harris' hematoxylin. For each of the test samples, one 400× field per quadrant of each of the quadruplicates was counted. From the total cell number in the 4 fields, the mean and standard error of the quadruplicate wells were calculated. Baseline migration equaled the number of migrated cells with MEM D-Val without any added proteins or peptides. The difference between baseline and the number of migrated cells with VEGF added equals maximal total migration.

Row | IC50 [3] | Molecule | effect on VEGF-induced fluorescein leakage / vascular permeability (fluorescein angiography) [1] | inhibition of VEGF-induced retinal vascular permeability (Evans blue-albumin) [2] | effect on VEGF-induced vascular permeability by Evans blue assay ([2]; qualitative statement)
1 | 500 pM | B1 | not observed; also recorded: inhibits | 95.6±21.2% | obliterated
2 | – | B2 | no effect | 19.4±22.3% | –
3 | – | B3 | no effect | 3.4±18.2% | –
